Experimental data as given in the nanobody polyreactivity screen of Harvey et al. (2022).

experiment: yeast display, Sf9 membrane polyspecificity reagent, FACS + sequencing; frameworks hold sequencing errors
Summary of the method: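 Nanobodies from a synthetic yeast display library (Saccharomyces cerevisiae BJ5465), induced 36–48 hours with galactose, were stained 1 hour at 4 °C with 10% biotinylated, detergent-solubilized Sf9 membrane reagent, enriched on streptavidin microbeads, then FACS-sorted. Anti-HA (expression) and streptavidin (reagent binding) fluorescence set low and high (top ~1%) gates. Polyreactivity labels come from the gate of origin. Genes were colony-PCR amplified, MiSeq 2 × 250 sequenced and filtered by CDR length.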

Sequence | polyreactivity (PSR sort gate)
QVHLVDSGGGLVQAGGSLRLRCAASGSSFNPNAMGLYRQDPGKERELVAAITSGGSTYYADSVKGRFTISRDNAKNTVYLQINSLKQEDTAVYYCNKALTSKDYPVRTVERDYWGQGTKVTVSS | low polyreactivity
QVHLVDSGGGLVQAGGSLRLSCAASGFNFTYYGMGSYRQAPGKERELVAAISESCGSTYYADSVKGRFTISRDNAKNTVYLQMTSLKPEDTAVYYCAADVTKRASRDYYWGQGTQVTVSS | high polyreactivity
QVHLVDSGGGLVQAGGSLRLSCAASGRIIDLYAMGCYRQAPGKEWELVAVIDIRDTSTYYADSVKGRFTISRDNAKNTVYLEMNSLKPEDTSVYYCAADYLVYDWYTYGYWGQGTQVTVSS | high polyreactivity
QVHLVDSGGGLVQEGGSLRLSCAASGFISPKYRMGWYRQAPRKERELVAANTTSDGSTSYADSVKGRFRISRDNAKTTVYLQMISLKPEDSAVYYCAAGYESWRSWVRRYLRMDYWGQGTQVTLSS | high polyreactivity
QVHLVDSGGGLVQEGGSLRLSCGASGSTFQSYAMGWYRQSPGKERELVAVIDSGGRTYYADSVKGRFTISRDNAKNTVYLQINSLKPEDTAVYYCAARGPVGNGWRYRPWHDYWGQGTQVTVSS | high polyreactivity
QVHLVESAGGLVQAGGSLRLSCAASGITFSDNAMGWYRPAPGKETEVVAAISWGGGSTYYADSVKGRFTISRDNAKNTVYLQMNSLKPEDTAFYYCNAGGYLISDVDRVGYWGQGTQVTVSS | low polyreactivity
QVHLVESAGGLVQAGGSLRLSCAASGRIFTPYAMGWYRQAPGKERELVAVIRDGSTYYADSVKGRFTISRDNAKNTVYLQMNSLKPEDSAVYYCRYDIWVWWSGAYDYWGQGTQVTVSS | low polyreactivity
QVHLVESAGGLVQAGGSLRLSCDASGFIFPRYDMGSYRQAPGKEREMVAAISRRGGSTNYADSVKGRFTISRDNAKNTVYLQMNSLKPEATAVYYCNADTTGYSSYGYDYWGQGSQVTVSS | high polyreactivity
QVHLVESGAGLVKAGGSLRLSCAASGRTFRYNAMGWYRQQPGNERELVATITTRGGSTYYADSVKGRFTISRDNAKNTVYLQMNSLKPEDTAVYYCATKWPVYPTGYDYWGQGTQVTVSS | low polyreactivity
QVHLVESGAGLVQAGGILRLSCAASGRIFAHYALGWYRQAPGKERELVAAISRGGSTKYADSVKGRFTISRDHAKNTVYFQMNSLKPEDTAVYYCARQLWGSPYGAYYAGDYWGQGTQVTVSS | low polyreactivity
QVHLVESGGCLVQAGGSLRLSCSASGSIFGWYAMGWYRQAPGKEREFVAAISYSGGSTYYADSVKGRFTNSRDIAKITVYLQINSLKPEDTAVYYCNARPYWYFPYRVPEGYDYWGQGTQVTVSS | high polyreactivity
QVHLVESGGGIVQAGGSLRLSCAASGIIFHWYAMGWYRQAPGKERELVAAITQSGGSTSYADSVKGRFTISRDNAKNTVYLQMNSLKPEDTAVYNCSKDYAYTLWENYYAFNYWGQGTQVTVSS | low polyreactivity
QVHLVESGGGKVQAGGRLRLSCAASGSTFFRYAMGWYRQAPGKERELVAAISWSGGTTYYADSVKGRFPISRDIAKNTVYLQMNSLKPEDTAVYYCNAVRQGHILDYWGQGTQVTVSS | low polyreactivity
QVHLVESGGGLDQAGGSLRLICAASGSIFDYYAMGWYRQAPGKERELVAAIDNPDSTNYADSVKGRFTLSRDNAKNTVYLQMNSLKPEDTAVYYCAASSRTVWYPGVGYYYWGQGTQVTVSS | low polyreactivity
QVHLVESGGGLDQAGGSLRLSCAASASIFELYAMGWYRQAPGKERELVAVISTGGSTYYADSVKGRFTISRDNAKNTVYLQMNSLKPEDTAVYYCAKGGYVPKLEYWGQGTQVTVSS | high polyreactivity
QVHLVESGGGLDQAGGSLRLSSAASGTTYRYAMGCYRQAPGKAMELVATISSRGGTTSYADSVKGRFTISRDNAKNTVYLQMNSLKPEDTAVYSCAAGQFPKYFSDDADMDYWGQGPQVTVSS | low polyreactivity
QVHLVESGGGLFQAGGSLRLSCAPSGSITGYYAMGWYRQAPGKERDLVASIRNTGARTYYADSVKGRFTISRDNAKKTVYIQKNSLKAEDTAVYYCAADVKRDRVRGGDDWGQGTQVTVSS | low polyreactivity
QVHLVESGGGLLQAGGSLRLSFAASGTFYYYAMGWNRQAPGKERELVATISWDSASTYYADSVKGRFTISRDNAKNTVYLQMNSLKPEDTGVYYCAAGGSSSWAFNYWGQGTQVTVSS | low polyreactivity
QVHLVESGGGLVKAGGSLRLSCAASGLTFYVYTMGWYRQAPGKERELVAVISSGDSTYYADSVKGRFTISRDNAKNTVYLQMNSLKPEDTAVYYCAAGTHYLIVRYGLYDYWGQGTQVYVSS | low polyreactivity
QVHLVESGGGLVKAGGSLRLSCAASGSIFTWYAMGWYRQEPGKERELVAAITWRGGSTYYADSVKGRFTISRDNAKNTVYLQMNSLKPEDTAVYYCAAAGRSGKSLLQYGYWGQGTQVTVSS | high polyreactivity

Sequence | polyreactivity (PSR sort gate)
QVHLVESGGGLVKAGGSLRLSCAAYGRIFSYNDMGWYRQSPGKDRELVAAISSSGGRTYYADSVKGSFTISRDNAKNTVYLQMNSMKPEDTALYYCNVLGYSYWGQGTQVTVSS | high polyreactivity
QVHLVESGGGLVQAAGSLRLSCAASGRTFNPNAIGWYRQAPGKERELVAVINVGGRTNYADSVKGRFTISRDNAKNTVYLQMNSLKPEDSAVYYCAAISSRNFDYWGQGTQVTVSS | high polyreactivity
QVHLVESGGGLVQAGASLRLSCAASGSIFVGYAMGWYRQAPGKERELVASISSGDDTYADSVKGRFTISRDNAKNTVYLQMNSLKPEDTAVYYCAKDYISVDWAYDYWGQGTQVTVSS | low polyreactivity
QVHLVESGGGLVQAGCSLRLSCAASGFTFYDYAMGWYRQAPGKERELVAGISRGDSTYYADSVKGRFTISRDNAKNTVYLQKNSLKPEDTSVYYCAADARSYDALDYSDLLYDYWGHGTQVTVSS | low polyreactivity
QVHLVESGGGLVQAGDSLRLSCASSGIIFYDYAMGWYRPAPGKERELVAAITSSGGSTYYADSVKGRFTISRDNAKNTVYLQMNSLIPEDTAVYYCAAATRGSGRRYDYLGQGTQVTVSS | high polyreactivity
QVHLVESGGGLVQAGGCLRLSCAASGSIFSVHAMGWYRQAPVKERELVAAISGDGDSTYYADSVKGRFTISRDNAKNTVYLQMNSLKPEDTAVYYCAVEPNVYFSVFVLFPSDYWGQGSQVTVSS | low polyreactivity
QVHLVESGGGLVQAGGGLRLSSAASGFIFSPNAMGWYRQAPGKEREYVAAISYSGTSTSYADSVKGRFTISRDNAKNTVYLQMNSLKPEDTAVYYCAAGRSNSYSPRRRVTYGYNYWGQGTQVTVSS | high polyreactivity
QVHLVESGGGLVQAGGRLRLSCAASGYIFSVYAMGLYRQAPGKERELVAAISSGGSTYYADSLKGRLTISRDNAKYTVYLQMNSLKPEDTAVYYCAAESVYVYWYYVDYDYWGQGTQVTVSS | high polyreactivity
QVHLVESGGGLVQAGGSHRLSCAASGLNFPPNAMGWYRQAPAKESELVASITRSGGSTYYADSVKGRFTISRDNAKNTVYLQMNSLKRDDTAVYYCAAYLDTSRYGVLYDYWGQGTQVTVSS | low polyreactivity
QVHLVESGGGLVQAGGSIRLSCAASGFIFGSYAMGWYRPAPGKERELVAVISASGGGTYYADSVKGRFTISRDNAKYTVYLQMNSLKPEDTAVYYCAAKGVRGFAGYGYWGQGTQVTVSS | high polyreactivity
QVHLVESGGGLVQAGGSLPLSCAASGIIFGGYDMGWYRPAPGIERELVAAISWSGGSTYYADSVKGRFTISRDNAKNTVYLPMNSLKPEDTAVYYCAAAYYAPTRVYYYWGQGTQVTVSS | low polyreactivity
QVHLVESGGGLVQAGGSLRISCAASGLTFQRYAMGWYRQAPGKERELVASITGNGGSTYYADSVKGRFTISRDNAQNSVYLQMNSLKPEDTAVFYCNARRYVRTSQQPLYDYWGQGTQVTVSS | high polyreactivity
QVHLVESGGGLVQAGGSLRLICAASGRILYLYAMGWYRQAPGKERELVARISQRDGSTYYADSVKGRFTISRDNAKNTVYLQMNSLKPEDTAVYYCNADFYLGSYGYSYDYWGQGTQVTVSS | low polyreactivity
QVHLVESGGGLVQAGGSLRLICAASGSIFRRYAMGWYRQAPGKERELVASISSRGTRTYYADSVTWRFTISRDNAKNTVYLQMNSLKPEDTAVYYCAASYYTPYDYLGQGTQVTVSS | high polyreactivity
QVHLVESGGGLVQAGGSLRLSCAASGDTFVKYAMGWYRQAPGKERELVAAISSGGRTYYADSVKGRFTISRDNAKNTVYLQMNSLKPEDTAVYFCNAVRPYRLASYDYWGQGTQVTVSS | high polyreactivity
QVHLVESGGGLVQAGGSLRLSCAASGFIFDFNTMGWYRQAPGKETEFVAAISGSGGRTYYADSVKGRFTISRDNAKNTVYLQMNSLKPEDTAVYYCAAYKRYYYGYDYWGQGTQVTVSS | high polyreactivity
QVHLVESGGGLVQAGGSLRLSCAASGFIFSVYAMGWYRQAPGKERELVAAINRSGSNTYYADSVKGRFTISRDNAKNTVYLQMNSLKPEDTAVYYCATLQGFWYYPPYIKTVQYGYWGQGTQVTVSS | high polyreactivity
QVHLVESGGGLVQAGGSLRLSCAASGFIFWENGMGWYRQAPGKERELVAAISSGGGRTYYADSVKGLFTISRDNAKNTVYLQMNSLKPEDTAFYYCNRARYYREFDYWGQGTQVTVSS | high polyreactivity
QVHLVESGGGLVQAGGSLRLSCAASGFTFDYNAMGWYRQAPGKEMELVAAISGSGGSTYYADSVKGRFTISRDNAKNTVYLQMNSLKPEDSSVYYCNAGRVTRRDTFDYWGQGTQVTVSS | high polyreactivity
QVHLVESGGGLVQAGGSLRLSCAASGFTFFYYAMGWYRPAPGKERELVAAINSGDNTNYADSVKGRFTISRDNAKNTVYLLMNSLIPEDTAVYYCAAQDYARGVVPGRRAMGYWGQGTQVSVSS | high polyreactivity
